In data set [1] the test system is His6-RelB (Streptococcus pneumoniae R6). Description: DNase I footprinting. The following applies: DNase I footprinting: 40 mM Tris-HCl pH 7.9, 6 mM MgCl2, 1 mM CaCl2, 10 mM NaCl plus 100 mM NaCl, 1 mM DTT, 10% glycerol, 10 ug/mL heparin or 50 ng ….
For data set [2], the system named is RelB (untagged, in RelB:RelE-His6 complex);RelE-His6 (Streptococcus pneumoniae R6;Streptococcus pneumoniae R6). Description: DNase I footprinting. Particulars: DNase I footprinting: 40 mM Tris-HCl pH 7.9, 6 mM MgCl2, 1 mM CaCl2, 10 mM NaCl plus 100 mM NaCl, 1 mM DTT, 10% glycerol, 10 ug/mL heparin or 50 ng ….

For PrelBE 199-bp promoter fragment, the binding stood at 10 µM in data set [1] and 1 µM in data set [2].

(Values after PMC8071376.)
